# Reference: PMC9482650, “Quantitative fragmentomics allow affinity mapping of interactomes” (Nature Communications, 2022)
# T1: APBA2_1, Q99767
# T1 sequence (Q99767 563-664, limits assumed, looked up): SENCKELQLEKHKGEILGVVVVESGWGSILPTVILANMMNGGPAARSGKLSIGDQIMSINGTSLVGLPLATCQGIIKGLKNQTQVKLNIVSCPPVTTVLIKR
# T2: ARHGEF11, O15085
# T2 sequence (O15085 42-136, limits assumed, looked up): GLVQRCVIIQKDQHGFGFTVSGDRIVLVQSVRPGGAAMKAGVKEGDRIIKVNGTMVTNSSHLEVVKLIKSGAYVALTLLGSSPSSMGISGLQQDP
# T3: GRIP1_2, Q9Y3R0
# T3 sequence (Q9Y3R0 145-248, limits assumed, looked up): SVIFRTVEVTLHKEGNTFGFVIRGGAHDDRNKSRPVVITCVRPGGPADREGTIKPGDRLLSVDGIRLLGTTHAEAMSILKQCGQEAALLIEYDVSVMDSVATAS
# T4: GRIP1_3, Q9Y3R0
# T4 sequence (Q9Y3R0 247-346, limits assumed, looked up): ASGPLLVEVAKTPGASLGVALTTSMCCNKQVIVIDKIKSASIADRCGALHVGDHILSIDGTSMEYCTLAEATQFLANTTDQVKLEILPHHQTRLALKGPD
# T5: GRIP1_4, Q9Y3R0
# T5 sequence (Q9Y3R0 467-571, limits assumed, looked up): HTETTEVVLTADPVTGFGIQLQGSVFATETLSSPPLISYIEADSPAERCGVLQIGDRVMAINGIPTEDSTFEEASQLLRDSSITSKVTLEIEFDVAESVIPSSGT
# T6: LNX2_2, Q8N448
# T6 sequence (Q8N448 334-432, limits assumed, looked up): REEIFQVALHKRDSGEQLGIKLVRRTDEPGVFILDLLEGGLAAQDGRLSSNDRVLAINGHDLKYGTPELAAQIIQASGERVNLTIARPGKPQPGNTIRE
# T7: MPDZ_12, O75970
# T7 sequence (O75970 1857-1958, limits assumed, looked up): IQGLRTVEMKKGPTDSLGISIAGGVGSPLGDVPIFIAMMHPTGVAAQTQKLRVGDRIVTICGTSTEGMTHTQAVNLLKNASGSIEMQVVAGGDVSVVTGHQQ
# T8: PDZD7_3, Q9H5P4
# T8 sequence (Q9H5P4 857-944, limits assumed, looked up): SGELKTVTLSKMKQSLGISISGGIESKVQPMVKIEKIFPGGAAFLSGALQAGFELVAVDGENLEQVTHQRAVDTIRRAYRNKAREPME
# T9: PTPN13_1, Q12923
# T9 sequence (Q12923 1088-1188, limits assumed, looked up): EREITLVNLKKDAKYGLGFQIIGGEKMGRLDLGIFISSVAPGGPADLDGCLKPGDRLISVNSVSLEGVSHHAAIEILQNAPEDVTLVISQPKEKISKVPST
# T10: SIPA1L2, Q9P2F8
# T10 sequence (Q9P2F8 945-1036, limits assumed, looked up): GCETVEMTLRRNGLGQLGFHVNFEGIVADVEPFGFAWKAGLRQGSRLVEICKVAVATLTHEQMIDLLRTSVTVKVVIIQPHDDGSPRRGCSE
# T11: SNTA1, Q13424
# T11 sequence (Q13424 82-180, limits assumed, looked up): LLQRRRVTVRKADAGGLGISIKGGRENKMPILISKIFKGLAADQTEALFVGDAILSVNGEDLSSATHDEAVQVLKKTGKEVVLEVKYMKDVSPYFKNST
# B1: TECPR2, O15040 (peptide)
# chain: EDLEDEWEVI
# Assays:
# Test in all cases: holdup assay
# Parameters in all cases: key: below the threshold = too weak to quantify, mostly under pKd 3.1 to 4
# Settings in all cases: plain residues with an end cap or a label only (N-terminal biotin on a linker: ado-ado)
# [1] = target: T1, APBA2_1, Q99767
# [2] = target: T2, ARHGEF11, O15085
# [3] = target: ARHGEF12, Q9NZN5-2
# Sequence of ARHGEF12, Q9NZN5-2 (Q9NZN5 other isoform, or with tags, fused parts or gaps): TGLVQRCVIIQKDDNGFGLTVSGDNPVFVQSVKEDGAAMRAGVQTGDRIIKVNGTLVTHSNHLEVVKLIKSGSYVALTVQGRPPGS
# [4] = target: DLG2_2, Q15700
# [5] = target: DLG2_3, Q15700
# [6] = target: GIPC2, Q8TF65
# Sequence of GIPC2, Q8TF65 (Q8TF65 112-203): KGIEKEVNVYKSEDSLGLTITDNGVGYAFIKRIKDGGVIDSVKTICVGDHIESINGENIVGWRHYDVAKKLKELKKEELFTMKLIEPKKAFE
# [7] = target: GOPC, Q9HD26
# [8] = target: T3, GRIP1_2, Q9Y3R0
# [9] = target: T4, GRIP1_3, Q9Y3R0
# [10] = target: T5, GRIP1_4, Q9Y3R0
# [11] = target: GRIP2_7, Q9C0E4
# Sequence of GRIP2_7, Q9C0E4 (Q9C0E4 934-1023): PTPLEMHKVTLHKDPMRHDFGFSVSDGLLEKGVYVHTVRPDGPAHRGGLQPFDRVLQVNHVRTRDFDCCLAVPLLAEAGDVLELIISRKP
# [12] = target: HTRA2, O43464
# Sequence of HTRA2, O43464 (O43464 355-458): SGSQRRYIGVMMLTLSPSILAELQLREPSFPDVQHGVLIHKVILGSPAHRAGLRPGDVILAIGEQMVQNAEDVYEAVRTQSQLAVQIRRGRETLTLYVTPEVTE
# [13] = target: Inadl_1, Q8NI35
# Sequence of Inadl_1, Q8NI35 (Q8NI35 113-229): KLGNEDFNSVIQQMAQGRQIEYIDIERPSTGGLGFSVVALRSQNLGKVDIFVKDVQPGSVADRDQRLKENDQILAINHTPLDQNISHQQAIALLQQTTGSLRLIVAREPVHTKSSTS
# [14] = target: Inadl_3, Q8NI35
# Sequence of Inadl_3, Q8NI35 (Q8NI35 359-469): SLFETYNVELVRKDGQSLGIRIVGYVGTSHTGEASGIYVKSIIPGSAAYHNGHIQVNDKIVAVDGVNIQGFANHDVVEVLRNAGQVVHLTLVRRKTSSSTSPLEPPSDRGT
# [15] = target: Inadl_4, Q8NI35
# Sequence of Inadl_4, Q8NI35 (Q8NI35 547-651): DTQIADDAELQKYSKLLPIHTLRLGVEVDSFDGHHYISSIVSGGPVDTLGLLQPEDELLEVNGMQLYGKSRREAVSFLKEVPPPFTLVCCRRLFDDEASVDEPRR
# [16] = target: LDB3, O75112
# Sequence of LDB3, O75112 (O75112 1-94): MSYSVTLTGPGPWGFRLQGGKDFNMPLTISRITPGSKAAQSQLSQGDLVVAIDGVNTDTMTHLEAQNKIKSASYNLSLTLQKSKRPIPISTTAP
# [17] = target: LNX1_2, Q8TBB1
# Sequence of LNX1_2, Q8TBB1 (Q8TBB1 371-470): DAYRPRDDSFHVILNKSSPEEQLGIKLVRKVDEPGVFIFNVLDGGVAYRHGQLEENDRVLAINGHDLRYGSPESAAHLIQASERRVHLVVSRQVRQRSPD
# [18] = target: T6, LNX2_2, Q8N448
# [19] = target: MAST2, Q6P0Q8
# Sequence of MAST2, Q6P0Q8 (Q6P0Q8 1099-1202): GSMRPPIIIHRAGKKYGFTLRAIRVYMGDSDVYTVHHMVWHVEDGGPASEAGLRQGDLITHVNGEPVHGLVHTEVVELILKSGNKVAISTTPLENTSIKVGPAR
# [20] = target: T7, MPDZ_12, O75970
# [21] = target: PDLIM1, O00151
# Sequence of PDLIM1, O00151 (O00151 1-87): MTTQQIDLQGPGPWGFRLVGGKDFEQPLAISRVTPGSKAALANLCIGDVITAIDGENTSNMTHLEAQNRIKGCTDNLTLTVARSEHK
# [22] = target: T8, PDZD7_3, Q9H5P4
# [23] = target: PICK1, Q9NRD5
# Sequence of PICK1, Q9NRD5 (Q9NRD5 17-115): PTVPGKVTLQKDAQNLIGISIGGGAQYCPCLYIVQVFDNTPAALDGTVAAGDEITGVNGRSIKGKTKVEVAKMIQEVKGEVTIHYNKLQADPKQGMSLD
# [24] = target: T9, PTPN13_1, Q12923
# [25] = target: SCRIB_1, Q14160
# Sequence of SCRIB_1, Q14160 (Q14160 718-814): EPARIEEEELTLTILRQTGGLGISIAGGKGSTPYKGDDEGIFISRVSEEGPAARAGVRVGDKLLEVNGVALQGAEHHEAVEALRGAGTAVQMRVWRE
# [26] = target: T10, SIPA1L2, Q9P2F8
# [27] = target: T11, SNTA1, Q13424
binder,measurement,setting,value
B1,pKd,[1],below the threshold
same,pKd,[2],below the threshold
same,pKd,[3],below the threshold
same,pKd,[4],below the threshold
same,pKd,[5],3.77
same,pKd,[6],below the threshold
same,pKd,[7],below the threshold
same,pKd,[8],below the threshold
same,pKd,[9],below the threshold
same,pKd,[10],below the threshold
same,pKd,[11],below the threshold
same,pKd,[12],below the threshold
same,pKd,[13],below the threshold
same,pKd,[14],4.33
same,pKd,[15],below the threshold
same,pKd,[16],below the threshold
same,pKd,[17],below the threshold
same,pKd,[18],4.18
same,pKd,[19],4.14
same,pKd,[20],below the threshold
same,pKd,[21],below the threshold
same,pKd,[22],3.92
same,pKd,[23],below the threshold
same,pKd,[24],below the threshold
same,pKd,[25],below the threshold
same,pKd,[26],below the threshold
same,pKd,[27],below the threshold
